Results: the supplement of paper PMC10065799, “High-throughput profiling of sequence recognition by tyrosine kinases and SH2 domains using bacterial peptide display” (eLife, 2023)

What was measured:
[1] = target: c-Src SH2; test: SH2 binding enrichment of the phosphorylated peptide, bacterial display (enrichment ratio); higher = better substrate or ligand; peptides without Tyr show the background
[2] = target: SHP2-C SH2; test: as above
[3] = target: Grb2 SH2 (UniProt P62993); test: as above
[4] = target: Jak2 (UniProt O60674); test: phosphorylation enrichment, bacterial display (enrichment ratio); higher = better substrate or ligand; peptides without Tyr show the background
[5] = target: EPHB2 (UniProt P29323); test: as above
[6] = system: c-Src; test: as above
[7] = target: Hck (UniProt P08631); test: as above
[8] = target: Fes (UniProt P07332); test: as above
[9] = system: Fer (mouse); test: as above
[10] = system: AncSZ; test: as above
[11] = target: FGFR3 (UniProt P22607); test: as above
[12] = target: Fyn (UniProt P06241); test: as above
[13] = target: FGFR1 (UniProt P11362); test: as above
[14] = system: c-Abl (mouse); test: as above
[15] = target: MERTK (UniProt Q12866); test: as above
[16] = target: EPHB1 (UniProt P54762); test: as above
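Wherever SH2 binding enrichment of the phosphorylated peptide, bacterial display is given: peptide library displayed on the E. coli surface as eCPX fusions, selected cells deep-sequenced, score is each peptide's frequency after selection divided by its frequency in the input.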
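Wherever phosphorylation enrichment, bacterial display is given: 11-residue human phosphosite peptides and single-mutation variants displayed on the E. coli surface, counted by deep sequencing, each peptide's frequency after selection divided by its frequency in the unselected input library; frequency after pTyr selection over input frequency; kinase dosed for 20-30% of maximal phosphorylation in three min.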

Sequence of Fyn (P06241 whole entry, looked up): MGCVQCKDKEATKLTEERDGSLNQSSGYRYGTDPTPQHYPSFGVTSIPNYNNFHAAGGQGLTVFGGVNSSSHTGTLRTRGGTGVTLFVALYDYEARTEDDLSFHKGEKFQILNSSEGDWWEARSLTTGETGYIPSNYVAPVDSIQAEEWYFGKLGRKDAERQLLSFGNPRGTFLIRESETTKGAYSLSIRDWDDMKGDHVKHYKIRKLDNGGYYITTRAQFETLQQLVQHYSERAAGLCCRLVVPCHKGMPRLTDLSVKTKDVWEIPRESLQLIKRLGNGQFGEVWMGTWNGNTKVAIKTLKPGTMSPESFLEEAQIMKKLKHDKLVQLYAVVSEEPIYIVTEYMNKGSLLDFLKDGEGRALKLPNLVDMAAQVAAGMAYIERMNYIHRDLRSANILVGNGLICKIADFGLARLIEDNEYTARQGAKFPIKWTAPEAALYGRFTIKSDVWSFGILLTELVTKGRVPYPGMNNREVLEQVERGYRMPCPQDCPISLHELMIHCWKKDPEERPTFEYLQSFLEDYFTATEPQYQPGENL
Sequence of Fes (P07332 whole entry, looked up): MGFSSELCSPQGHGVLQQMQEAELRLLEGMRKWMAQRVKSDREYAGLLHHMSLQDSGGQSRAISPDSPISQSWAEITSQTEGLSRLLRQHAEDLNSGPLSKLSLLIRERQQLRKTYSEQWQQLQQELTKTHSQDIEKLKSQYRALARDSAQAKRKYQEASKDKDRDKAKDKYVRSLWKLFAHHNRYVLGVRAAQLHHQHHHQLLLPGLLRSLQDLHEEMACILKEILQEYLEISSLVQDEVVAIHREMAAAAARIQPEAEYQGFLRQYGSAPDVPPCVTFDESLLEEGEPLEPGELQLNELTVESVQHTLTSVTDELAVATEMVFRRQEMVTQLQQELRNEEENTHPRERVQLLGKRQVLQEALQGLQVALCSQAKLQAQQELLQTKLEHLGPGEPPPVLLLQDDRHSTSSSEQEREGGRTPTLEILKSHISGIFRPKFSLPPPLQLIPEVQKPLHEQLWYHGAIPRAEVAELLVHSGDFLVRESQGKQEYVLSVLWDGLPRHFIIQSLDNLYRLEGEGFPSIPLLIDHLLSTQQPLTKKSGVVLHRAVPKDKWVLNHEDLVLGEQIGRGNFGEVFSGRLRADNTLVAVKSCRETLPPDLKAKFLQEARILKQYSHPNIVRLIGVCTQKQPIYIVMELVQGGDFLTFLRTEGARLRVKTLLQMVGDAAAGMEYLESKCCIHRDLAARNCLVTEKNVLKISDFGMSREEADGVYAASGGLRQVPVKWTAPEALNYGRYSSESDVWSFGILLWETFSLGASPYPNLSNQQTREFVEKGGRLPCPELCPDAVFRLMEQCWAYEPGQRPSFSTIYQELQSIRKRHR
Sequence of EPHB1 (P54762 whole entry, looked up, the tested form may be a part): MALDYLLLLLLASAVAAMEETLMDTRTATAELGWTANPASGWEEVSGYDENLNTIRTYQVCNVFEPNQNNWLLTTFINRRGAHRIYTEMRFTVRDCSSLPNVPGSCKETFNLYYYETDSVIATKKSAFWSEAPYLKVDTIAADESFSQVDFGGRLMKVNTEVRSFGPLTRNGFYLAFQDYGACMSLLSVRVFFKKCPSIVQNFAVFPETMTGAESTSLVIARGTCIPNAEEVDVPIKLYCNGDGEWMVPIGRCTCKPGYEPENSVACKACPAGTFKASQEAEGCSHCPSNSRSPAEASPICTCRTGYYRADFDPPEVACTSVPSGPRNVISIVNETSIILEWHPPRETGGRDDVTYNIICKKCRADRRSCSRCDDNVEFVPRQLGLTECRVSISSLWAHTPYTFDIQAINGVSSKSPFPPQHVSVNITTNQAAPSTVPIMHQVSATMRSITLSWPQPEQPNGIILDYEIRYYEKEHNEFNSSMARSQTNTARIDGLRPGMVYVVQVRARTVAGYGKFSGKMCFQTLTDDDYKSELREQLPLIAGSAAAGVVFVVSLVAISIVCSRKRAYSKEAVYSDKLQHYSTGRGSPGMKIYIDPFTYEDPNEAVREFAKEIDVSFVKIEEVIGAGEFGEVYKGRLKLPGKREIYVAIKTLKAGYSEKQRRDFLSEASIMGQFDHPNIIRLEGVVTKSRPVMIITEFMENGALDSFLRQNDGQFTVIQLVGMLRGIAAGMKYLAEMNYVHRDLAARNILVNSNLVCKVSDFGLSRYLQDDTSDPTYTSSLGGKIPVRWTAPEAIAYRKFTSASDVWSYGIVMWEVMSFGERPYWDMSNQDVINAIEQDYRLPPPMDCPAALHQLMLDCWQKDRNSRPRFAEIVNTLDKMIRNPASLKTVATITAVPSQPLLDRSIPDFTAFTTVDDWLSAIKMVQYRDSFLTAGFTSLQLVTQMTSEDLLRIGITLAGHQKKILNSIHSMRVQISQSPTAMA
Sequence of Hck (P08631 whole entry, looked up): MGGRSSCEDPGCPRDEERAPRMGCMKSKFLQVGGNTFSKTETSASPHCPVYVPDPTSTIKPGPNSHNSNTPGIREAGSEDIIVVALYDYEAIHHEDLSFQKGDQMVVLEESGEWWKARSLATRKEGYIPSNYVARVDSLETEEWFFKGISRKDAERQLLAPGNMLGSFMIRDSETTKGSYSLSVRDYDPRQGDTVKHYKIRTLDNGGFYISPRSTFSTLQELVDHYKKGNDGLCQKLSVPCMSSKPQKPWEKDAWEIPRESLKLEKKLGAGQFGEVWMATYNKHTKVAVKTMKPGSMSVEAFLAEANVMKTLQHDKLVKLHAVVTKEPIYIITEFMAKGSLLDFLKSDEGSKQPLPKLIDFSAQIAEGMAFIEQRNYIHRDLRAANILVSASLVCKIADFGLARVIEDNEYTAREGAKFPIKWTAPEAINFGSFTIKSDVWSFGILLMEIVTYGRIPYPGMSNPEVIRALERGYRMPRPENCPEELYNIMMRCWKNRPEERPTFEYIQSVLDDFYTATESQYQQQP
Sequence of MERTK (Q12866 whole entry, looked up): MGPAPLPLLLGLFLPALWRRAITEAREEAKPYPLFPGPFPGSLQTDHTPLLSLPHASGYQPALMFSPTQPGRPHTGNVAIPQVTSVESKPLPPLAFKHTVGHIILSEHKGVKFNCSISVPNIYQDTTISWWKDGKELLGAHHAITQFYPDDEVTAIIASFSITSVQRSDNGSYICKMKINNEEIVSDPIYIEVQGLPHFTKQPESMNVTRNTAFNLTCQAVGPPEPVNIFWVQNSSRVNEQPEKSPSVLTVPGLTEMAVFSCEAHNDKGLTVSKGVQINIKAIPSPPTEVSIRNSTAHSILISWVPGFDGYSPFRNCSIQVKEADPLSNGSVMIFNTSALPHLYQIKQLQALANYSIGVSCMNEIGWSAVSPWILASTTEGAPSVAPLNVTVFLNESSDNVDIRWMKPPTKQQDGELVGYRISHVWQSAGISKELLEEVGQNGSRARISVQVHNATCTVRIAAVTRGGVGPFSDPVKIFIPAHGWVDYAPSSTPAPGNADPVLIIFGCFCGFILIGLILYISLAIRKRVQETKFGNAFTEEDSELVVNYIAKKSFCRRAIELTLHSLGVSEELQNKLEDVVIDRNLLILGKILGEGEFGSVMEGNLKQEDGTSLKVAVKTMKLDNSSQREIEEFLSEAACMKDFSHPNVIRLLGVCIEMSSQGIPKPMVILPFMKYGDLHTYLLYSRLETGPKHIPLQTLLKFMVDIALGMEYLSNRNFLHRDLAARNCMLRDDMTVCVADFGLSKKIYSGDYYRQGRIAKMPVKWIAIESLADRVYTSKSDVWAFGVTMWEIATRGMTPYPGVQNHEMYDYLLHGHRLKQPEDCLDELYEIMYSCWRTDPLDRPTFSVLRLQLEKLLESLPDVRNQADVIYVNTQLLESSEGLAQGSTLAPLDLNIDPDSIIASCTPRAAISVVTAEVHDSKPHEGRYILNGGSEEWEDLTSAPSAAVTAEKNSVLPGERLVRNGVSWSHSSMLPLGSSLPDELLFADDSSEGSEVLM
Sequence of FGFR3 (P22607 whole entry, looked up): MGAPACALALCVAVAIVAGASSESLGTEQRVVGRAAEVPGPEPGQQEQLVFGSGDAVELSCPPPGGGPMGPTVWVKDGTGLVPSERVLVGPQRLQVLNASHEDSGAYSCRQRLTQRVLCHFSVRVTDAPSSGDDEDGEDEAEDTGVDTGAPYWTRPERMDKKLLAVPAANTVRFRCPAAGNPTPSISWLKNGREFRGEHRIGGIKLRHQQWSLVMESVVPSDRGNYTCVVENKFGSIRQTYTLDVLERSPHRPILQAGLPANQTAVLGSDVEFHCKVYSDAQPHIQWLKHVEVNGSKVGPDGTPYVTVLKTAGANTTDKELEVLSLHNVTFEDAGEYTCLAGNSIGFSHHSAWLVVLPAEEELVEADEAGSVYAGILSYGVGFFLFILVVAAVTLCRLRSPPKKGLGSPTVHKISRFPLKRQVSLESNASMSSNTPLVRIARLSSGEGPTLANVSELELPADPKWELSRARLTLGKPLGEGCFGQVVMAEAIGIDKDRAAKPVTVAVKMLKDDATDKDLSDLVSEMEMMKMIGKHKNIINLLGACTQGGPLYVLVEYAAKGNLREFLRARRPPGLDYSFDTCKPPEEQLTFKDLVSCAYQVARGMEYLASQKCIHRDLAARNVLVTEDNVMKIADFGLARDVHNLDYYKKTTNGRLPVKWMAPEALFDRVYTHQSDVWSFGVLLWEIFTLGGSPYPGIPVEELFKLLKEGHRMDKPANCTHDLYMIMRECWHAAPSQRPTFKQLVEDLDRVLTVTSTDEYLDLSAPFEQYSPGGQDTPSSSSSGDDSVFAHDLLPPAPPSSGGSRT

Sequence | SH2 binding enrichment [1] | SH2 binding enrichment [2] | SH2 binding enrichment [3] | phosphorylation enrichment [4] | phosphorylation enrichment [5] | phosphorylation enrichment [6] | phosphorylation enrichment [7] | phosphorylation enrichment [8] | phosphorylation enrichment [9] | phosphorylation enrichment [10] | phosphorylation enrichment [11] | phosphorylation enrichment [12] | phosphorylation enrichment [13] | phosphorylation enrichment [14] | phosphorylation enrichment [15] | phosphorylation enrichment [16]
IDPYIYTPFGS [CYP3A4_Y432] | 0.713 | 0.868 | 0.775 | 2.38 | 0.701 | 6.67 | 5.71 | 0.956 | 1.9 | 1.43 | 1.66 | 7.45 | 2.44 | 0.865 | 3.67 | 0.702
GQAPGYSYTAA [CYCS_Y47] | 0.791 | 0.659 | 0.873 | 0.615 | 0.5 | 0.416 | 0.502 | 0.665 | 0.433 | 0.601 | 0.481 | 0.471 | 0.43 | 0.56 | 0.438 | 0.483
KKFVPYYDLFM [IPO5_Y530_E525K] | 2.43 | 1.14 | 1.6 | 1.07 | 4.22 | 2.32 | 2.1 | 1.05 | 1.3 | 0.895 | 3.24 | 2.06 | 4.49 | 0.686 | 6.5 | 4.25
IGSHAYGDQFR [IDH1_Y135_R132S_YF] | 0.425 | 0.96 | 0.892 | 0.477 | 0.389 | 0.353 | 0.498 | 0.556 | 0.394 | 0.527 | 0.51 | 0.464 | 0.518 | 0.363 | 0.377 | 0.32
DPYHVYIKNRV [KCNE3_Y95] | 1.09 | 0.762 | 0.874 | 0.872 | 0.567 | 2.15 | 0.958 | 1.02 | 0.375 | 0.973 | 0.628 | 1.02 | 0.407 | 0.832 | 0.396 | 0.544
SYNNKYGMVAQ [APOB_Y276_K273N] | 0.49 | 0.555 | 0.713 | 0.607 | 0.474 | 0.467 | 0.476 | 0.632 | 0.411 | 0.623 | 0.471 | 0.428 | 0.41 | 0.61 | 0.378 | 0.381
PASLSYLSFEG [EXOSC3_Y143] | 0.696 | 1.11 | 0.762 | 1.18 | 0.789 | 1.1 | 0.602 | 0.954 | 0.501 | 0.942 | 0.742 | 0.819 | 0.591 | 0.619 | 0.661 | 0.745
SSWKLYPRMLR [HAO1_Y50_R46S] | 0.516 | 0.803 | 0.904 | 0.635 | 0.463 | 0.366 | 0.433 | 0.871 | 0.454 | 0.773 | 0.472 | 0.404 | 0.44 | 0.539 | 0.432 | 0.457
PAGSGYPAFLG [ATP6V1A_Y374_D371G_YF] | 0.538 | 0.778 | 0.828 | 0.687 | 1.17 | 0.735 | 0.626 | 1.13 | 0.512 | 1 | 0.794 | 0.478 | 0.737 | 0.869 | 0.469 | 0.634
MENFIYESMQY [CYP19A1_Y361_R365Q] | 0.786 | 0.954 | 0.914 | 0.894 | 5.02 | 6.84 | 7.07 | 3.36 | 13.3 | 1.37 | 0.724 | 9.05 | 0.652 | 1.24 | 3.64 | 7.15
GFSRHCEDGFP [CTNND1_Y217_Y217C_YF] | 0.479 | 0.663 | 0.774 | 0.724 | 0.555 | 0.441 | 0.441 | 0.958 | 0.485 | 0.767 | 0.697 | 0.437 | 0.471 | 0.83 | 0.402 | 0.497
ITKQEYDEAGP [ACTA1_Y364] | 7.7 | 0.786 | 0.869 | 0.881 | 0.488 | 0.422 | 0.51 | 1.08 | 0.494 | 1.14 | 0.689 | 0.563 | 0.475 | 0.679 | 0.423 | 0.553
FSQQVYRVNLS [FAT4_Y480] | 0.48 | 0.882 | 0.827 | 0.762 | 0.48 | 0.623 | 0.392 | 0.729 | 0.495 | 0.658 | 0.516 | 1.01 | 0.49 | 0.532 | 0.409 | 0.563
PIGRKYKKVRF [F8_Y442_R437P] | 0.568 | 0.648 | 0.653 | 0.545 | 0.597 | 0.587 | 0.553 | 0.54 | 0.459 | 0.828 | 0.368 | 0.763 | 0.577 | 0.661 | 0.498 | 0.557
YGMSTYITRED [FNDC3B_Y180] | 0.464 | 0.576 | 0.608 | 1.07 | 0.584 | 0.981 | 0.873 | 1.25 | 0.745 | 0.972 | 0.683 | 0.852 | 0.514 | 0.924 | 0.46 | 0.712
TIAIRYSHSRR [ACOXL_Y260] | 0.495 | 0.44 | 0.608 | 0.785 | 0.622 | 0.691 | 0.576 | 0.918 | 0.632 | 0.746 | 0.599 | 0.644 | 0.536 | 0.655 | 0.648 | 0.363
EFLRNYFTDKA [DSG2_Y775] | 0.444 | 1.03 | 1.03 | 0.962 | 0.472 | 0.528 | 0.414 | 1.08 | 0.573 | 1.09 | 0.622 | 0.48 | 0.569 | 0.764 | 0.567 | 0.572

Further lines, with some results ahead:

SH2 binding enrichment [1] | SH2 binding enrichment [2] | SH2 binding enrichment [3] | Sequence | phosphorylation enrichment [4] | phosphorylation enrichment [5] | phosphorylation enrichment [6] | phosphorylation enrichment [7] | phosphorylation enrichment [8] | phosphorylation enrichment [9] | phosphorylation enrichment [10] | phosphorylation enrichment [11] | phosphorylation enrichment [12] | phosphorylation enrichment [13] | phosphorylation enrichment [14] | phosphorylation enrichment [15] | phosphorylation enrichment [16]
6.48 | 0.546 | 0.759 | AAVPAYDKIQV [STXBP2_Y401_R405Q] | 1.06 | 0.417 | 0.593 | 1.09 | 1.43 | 5.58 | 0.92 | 0.666 | 0.612 | 0.66 | 0.96 | 0.688 | 0.793
0.906 | 1.19 | 1.33 | RVFIKYLPEWT [PSEN1_Y240_L235R] | 1.71 | 1.34 | 0.855 | 0.944 | 2.8 | 1.02 | 2.32 | 1.32 | 0.735 | 0.966 | 1.13 | 0.678 | 1.15
0.556 | 0.765 | 0.831 | EYRFIYMAVQH [PTPN11_Y515_Q510E] | 1.26 | 1.02 | 3.46 | 4.57 | 1.34 | 3.17 | 1.39 | 1.71 | 4.15 | 2.02 | 2.02 | 1.29 | 1.96
0.477 | 0.415 | 0.701 | GGYTCCCDGKK [PROS1_Y266_Y266C] | 0.729 | 0.819 | 0.426 | 0.454 | 1 | 0.513 | 0.943 | 0.618 | 0.507 | 0.444 | 0.792 | 0.436 | 0.442
1.09 | 1.27 | 2 | QRCFVYFFSFL [PTEN_Y176_R173C_YF] | 2.19 | 0.526 | 1.48 | 0.65 | 2.21 | 1.06 | 1.48 | 1.16 | 1.47 | 0.765 | 1.3 | 0.69 | 1.13
0.633 | 0.596 | 0.953 | KFFRVYQGQQP [MUTYH_Y494_V490F] | 0.627 | 0.507 | 0.457 | 0.495 | 0.842 | 0.431 | 0.898 | 0.78 | 0.623 | 0.592 | 0.652 | 0.447 | 0.452
0.591 | 0.802 | 0.894 | TNLVPYPCIHF [TUBA1A_Y262_R264C] | 0.753 | 0.557 | 0.519 | 0.534 | 0.96 | 0.517 | 0.975 | 0.66 | 0.492 | 0.546 | 0.646 | 0.578 | 0.599
0.44 | 0.6 | 0.77 | CENNRYGMGTS [PDHA1_Y227] | 0.999 | 0.606 | 0.517 | 0.555 | 1.36 | 0.538 | 0.991 | 0.726 | 0.518 | 0.548 | 0.715 | 0.397 | 0.686
0.428 | 0.775 | 0.967 | DFFDLYGGKKF [PTPN11_Y66_E69K_YF] | 0.974 | 0.519 | 3.49 | 7.26 | 1.02 | 0.499 | 1.01 | 0.616 | 3.04 | 0.57 | 0.69 | 0.489 | 0.44
0.556 | 1.93 | 1.09 | SLHPGYNFRYA [P2RX7_Y291_Y288H] | 0.925 | 0.497 | 0.454 | 0.492 | 0.949 | 0.442 | 0.657 | 0.545 | 0.424 | 0.431 | 0.637 | 0.622 | 0.351
1.56 | 0.628 | 0.94 | VHSGTYQVMVR [MYBPC3_Y1043_T1046M] | 0.467 | 0.648 | 0.988 | 1.98 | 0.637 | 0.343 | 0.711 | 0.468 | 0.539 | 0.456 | 0.489 | 1.27 | 2.04
0.385 | 0.781 | 0.605 | PDGREYIYVDP [PDGFRA_Y572_H570R] | 1.88 | 2.74 | 1.77 | 1.28 | 1.35 | 0.983 | 3.36 | 5.18 | 1.07 | 8.67 | 1.93 | 1.42 | 3.98
1.29 | 2 | 1.36 | LQTYHYHGHSM [PDHA1_Y289_R288H] | 1.52 | 0.636 | 0.916 | 0.742 | 0.943 | 0.75 | 0.974 | 0.963 | 0.671 | 1.16 | 0.559 | 0.911 | 0.689
0.509 | 0.832 | 1.1 | FLGKGYSDGGC [MC4R_Y35_S30F] | 0.95 | 0.567 | 0.592 | 0.579 | 1.14 | 0.542 | 0.876 | 0.623 | 0.548 | 0.672 | 0.818 | 0.552 | 0.503
0.56 | 0.581 | 0.81 | VPVPGYTKVPE [SPRR3_Y146_L149V] | 0.769 | 0.541 | 0.398 | 0.526 | 0.75 | 0.525 | 0.776 | 0.789 | 0.494 | 0.437 | 0.615 | 0.501 | 0.365
0.644 | 0.839 | 0.808 | DKANRYFSPNV [PTEN_Y336_F341V] | 0.412 | 0.394 | 0.388 | 0.376 | 0.544 | 0.363 | 0.446 | 0.504 | 0.378 | 0.355 | 0.486 | 0.354 | 0.297
